Results from patent US20200157194A1 (Regeneron, published 2020).
Several values for one entry are separate records, joined by “and”; a condition that tells them apart may be missing. Identical values can stand only once. Like-named read-outs stand apart in the source and are kept apart here.

T1: human GREM1 (hGREM1-His; SEQ ID NO: 595) (human, UniProt O60565 25-184)
T1 construct: also called biotin-hGREM1-His; recombinant human GREM1 protein
T1 sequence: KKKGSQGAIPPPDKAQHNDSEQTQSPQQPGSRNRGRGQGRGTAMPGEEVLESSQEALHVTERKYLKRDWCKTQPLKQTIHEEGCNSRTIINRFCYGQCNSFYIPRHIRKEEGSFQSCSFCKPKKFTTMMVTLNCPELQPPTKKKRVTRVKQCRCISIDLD

B1: recombinant human GREM1 (hGREM1-His; C-terminal 10His tagged, R&D, #5190-GR) (ligand)
chain: KKKGSQGAIPPPDKAQHNDSEQTQSPQQPGSRNRGRGQGRGTAMPGEEVLESSQEALHVTERKYLKRDWCKTQPLKQTIHEEGCNSRTIINRFCYGQCNSFYIPRHIRKEEGSFQSCSFCKPKKFTTMMVTLNCPELQPPTKKKRVTRVKQCRCISIDLDHHHHHHHHHH

Experiments:
[1] = target: T1, human GREM1 (hGREM1-His; SEQ ID NO: 595); assay: SPR, Biacore T200, 25 C, mAb captured, hGREM1-His injected;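 also: Heparin-supplemented HBS-EP+ used as running buffer, association and dissociation phases followed, Kd computed as koff divided by kon and half-life derived from koff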
[2] = target: B1; assay: cell-based or functional assay
[3] = target: recombinant human BMP4 (hBMP4; R&D, #314-BP/CF) (human); assay: cell-based or functional assay
[4] = target: recombinant human BMP4 (hBMP4; R&D, #314-BP/CF) (human); assay: cell-based or functional assay; remark: listed apart in the source
[5] = target: recombinant human BMP4 (hBMP4; R&D, #314-BP/CF) (human); assay: cell-based or functional assay; remark: listed apart in the source

Sequence of recombinant human BMP4 (hBMP4; R&D, #314-BP/CF) (human) (P12644 293-408): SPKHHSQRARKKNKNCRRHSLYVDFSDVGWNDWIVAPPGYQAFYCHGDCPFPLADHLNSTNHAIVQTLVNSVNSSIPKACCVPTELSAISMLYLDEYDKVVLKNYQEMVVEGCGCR

Kd [1] | koff [1] | kon [1] | t1/2 [1] | IC50 [M], inhibition of hGREM1-His, W-20-17/BRE-luc luciferase (100 pM hBMP4, 10 nM hGREM1-His) [2] | IC50 [M], inhibition of hGREM1-His, W-20-17/BRE-luc luciferase (200 pM hBMP4, 20 nM hGREM1-His) [2] | hGrem1-His IC50 (nM), inhibition of 100 pM hBMP4, W-20-17/BRE-luc luciferase [3] | hGrem1-His IC50 (nM), inhibition of 200 pM hBMP4, W-20-17/BRE-luc luciferase [3] | hGREM1-His, IC50 (M); W-20-17 cell differentiation assay (alkaline phosphatase) [4] | hGrem1-His IC50 (nM), inhibition of 100 pM hBMP4, W-20-17/BRE-luc luciferase [5] | Binder
8.8 nM | 0.00145 s⁻¹ | 164000 M⁻¹ s⁻¹ | 8 min | 1.7e-09 M | – | – | – | – | – | H2aM2901N (antibody, mouse IgG2, V domains shown, H2M prefix = mouse IgG2 Fc (here H2aM); also called H2M2901N) VH: EVQLVESGGGLVKPGGSLRLSCAASGFTFSYYSMIWVRQAPGKGLEWVSSISSSSSYIYYADSVKGRFTISRDNAKKSMYLQMNSLRAEDTAVYYCARGSGYPDYWGQGTLVTVSS VL: DIQMTQSPSSLSASVGDRVTITCRASQGINNYLAWYQQKPGKVPKLLIYAASTLRSGVPSRFSGSGSGTDFTLTISSLQPEDVATYYCQKYNSAPFTFGPGTKVDIK
15.3 nM | 0.00189 s⁻¹ | 123000 M⁻¹ s⁻¹ | 6.1 min | – | 3.5e-09 M | – | – | – | – | H2bM2782N (antibody, mouse IgG2, V domains shown, H2M prefix = mouse IgG2 Fc (here H2bM); also called H2M2782N) VH: EVQLVESGGGLVQPGGSLRLSCAASGFTFSSYSMNWVRQAPGKGLEWVSSISSSSNYINYADSIKGRFTISRDNAKNSLYLQMNSLRAEDTAVYYCARVNWDYPFDCWGRGTLVTVSS VL: DIQMTQSPSSLSASVGDRVTITCRASQDIRHYLVWYQQKPGKVPKLLIYAASTLQSGVPSRFSGSGSGTDFILTISSLQPEDVATYYCQKYNSAPFTFGPGTKVDIK
45.3 nM | 0.00281 s⁻¹ | 62000 M⁻¹ s⁻¹ | 4.1 min | 1.8e-09 M | – | – | – | – | – | H1M2907N (antibody, V domains shown, H1M prefix marks the Fc (chimeric, mouse constant domains)) VH: QVQLVESGGGVVQPGRSLRLSCAASGFTFSSYGMHWVRQAPGKGLEWVAIIWNDGSNKYYVDSVKGRFTISRANSKNTLYLQMNSLRAEDTAVYYCARDGLEPDAFDIWGQGTMVTVSS VL: EIVLTQSPATLSLSPGERATLSCRASQSVSSFLAWYQQKPGQAPRLLIYDASNRATGIPARFSGSGSGTDFTLTISSLEPEDFAVYYCQQRSNWPPYTFGQGTKLEIK
33 nM | 0.006 s⁻¹ | 180000 M⁻¹ s⁻¹ | 1.9 min | – | 1.9e-08 M | – | – | – | – | H2bM2786N (antibody, mouse IgG2, V domains shown, H2M prefix = mouse IgG2 Fc (here H2bM); also called H2M2786N) VH: EVHLLESGGGLVQPGGSLRLSCAASGFTFSSYVMNWVRQAPGKGLEWVSAISGSGGSTYYGDSVKGRSTISRDNSKNTLYLQMKSLRAEDTAVYYCAKGDIAPIVFDAFDIWGQGTMVTVSS VL: DIQMTQSPSSLSASVGDRVTITCQASQDISNCLNWYQHKPGKAPKLLIYDASYLETGVPSRFSGSGSGTDFTFTISSLQPEDIATYYCQQYDNLPYTFGQGTKLEIK
29 nM | 0.00362 s⁻¹ | 125000 M⁻¹ s⁻¹ | 3 min | 2.2e-09 M | – | – | – | – | – | H3M2929N (antibody, V domains shown, H3M prefix marks the Fc (chimeric, mouse constant domains)) VH: QVQLVESGGGVVQPGRSLRLSCAASGFIFSSYGMHWVRQAPGKGLEWVAVIWNDGSNKYSADSVKGRFTVSRDNSKNTLYLQMNSLKAEDTAVYYCARDGEWEVFDYWGQGTLVTVSS VL: DIVMTQSPVTLSASPGERATLSCRASQSVRSNLAWYQEKPGQAPRLLIYGASTRATGIPARFSGSGSGTEFTLTISSLQSEDFAVYYCQQYNDWPPWTFGQGTKVEIK
– | – | – | – | – | – | 6 nM and 4.3 nM and 4.2 nM and 5.4 nM | 10.3 nM | 4.4e-09 M | 2.9 nM | B1
4.2 nM | 0.00035 s⁻¹ | 80000 M⁻¹ s⁻¹ | 33 min | – | 2.5e-08 M | – | – | – | – | H3M2788N (antibody, V domains shown, H3M prefix marks the Fc (chimeric, mouse constant domains)) VH: QVQLVESGGGVVQPGRSLRLSCAASGFTFSSHGMHWVRQAPGKGLEWVAVIWYDGSNKYHADSVKGRFTIYRDNSKNTLDLQMNSLRVEDTAMYYCAREDSNNEDLDYWGQGTLVTVSS VL: DIQMTQSPSSLSASVGDRVTITCRASQGIRNDLGWFQQKPGKAPKRLIYVASNLQSGVPSRFSGSGSGTEFTLTISSLQPEDFATYYCLQHSNYPPWTFGQGTKVEIK
